Data on 14 molecules can be found in patent US20130266605A1, “PEPTIDE INHIBITORS OF CD40L SIGNALING AND USES THEREFOR” (PHYLOGICA LIMITED, priority 2010, published 2013).

As usually defined, the Kd is the free concentration of one partner at which half of the binding sites on the other are occupied at equilibrium, for simple one-to-one binding. Lower therefore signals tighter binding. As a reminder, the EC50 is the concentration at which the effect is half-maximal. Low readings indicate higher potency in that assay, high ones lower potency in that assay. As usually defined, the IC50 is the point on the concentration scale where inhibition reaches its midpoint. Higher therefore signals weaker potency in that assay.

“Also recorded” adds a separate entry of the source. Where two headings read alike, the source gives them in different places. Positions of bridges follow the written chain, without caps; N, C: chain ends. Residues, ends and D or L forms follow the SMILES beside them. Chains are numbered I, II in the order given. No end group written: not given here. PEG = not defined here

In one experiment the test system is TNFα-induced cytoxicity. Nature of the experiment: TNFα-induced cytotoxicity control assay. To be noted: in words, specificity control. The class given is cell-based. How it is done: (§1) As a control in these assays, LPS-induced expression of CD86 mediated by the Toll-like receptors TLR 2/4, and TNFα-induced cytoxicity, were also assayed to exclude effects mediated by ligands other than CD40L.

The test system of experiment [1] is LPS-induced expression of CD86 mediated by the Toll-like receptors TLR 2/4. Briefly: LPS-induced CD86 expression control assay. In kind it is cell-based. The following applies: in words; specificity control; listed as M1—18S. The procedure:
as §1

Experiment [2] has as its target CD40L-induced CD86 expression on primary B-cells (UniProt P29965). Nature of the experiment: Inhibition of CD40L-induced CD86 expression on primary B-cells (FACS). The following applies: in words.
Description: In one example, the ability of a peptide, analog or derivative of the invention to inhibit or reduce or delay expression of CD86 on primary B-cells was determined in the presence and absence of the peptides, analogs and derivatives of the invention. In particular, CD86 expression was determined by FACS.
Experiment [3] addresses T1, CD40 ligand (UniProt P29965 108-261, limits assumed).
T1 construct: Used immobilised, soluble, or biotinylated on streptavidin beads; also called CD154; soluble CD40L
T1 sequence (looked up): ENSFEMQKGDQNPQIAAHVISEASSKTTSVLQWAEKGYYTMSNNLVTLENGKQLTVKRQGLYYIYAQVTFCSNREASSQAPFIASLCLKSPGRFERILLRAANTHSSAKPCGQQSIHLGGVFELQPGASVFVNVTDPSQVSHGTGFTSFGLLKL
Briefly: Alphascreen proximity assay, peptide titrated against 0.75nM CD40L; blocked interaction: CD40L with CD40. Background: Bead proximity is the source of the signal in Alpha formats.

The target of experiment [4] is T1, CD40 ligand. Briefly: Alphascreen proximity assay, peptide titrated; blocked interaction: CD40L with CD40.
Experiment [5] has as its target T1, CD40 ligand. Briefly: cell-based or functional assay.
Experiment [6] has as its target T1, CD40 ligand. Nature of the experiment: Octet Red label-free (BLI).
In experiment [7] the target is T1, CD40 ligand. Nature of the experiment: Alphascreen, PEGylated peptide, inhibition of CD40L/CD40-Fc.
For experiment [8], the target named is T1, CD40 ligand. Nature of the experiment: cell-based or functional assay. The source holds these as a separate data set.
The target in experiment [9] is T1, CD40 ligand. Nature of the experiment: Octet Red label-free (BLI). The source holds these as a separate data set. A general note: BLI is a label-free optical method that tracks binding on a fibre tip over time.
The target of experiment [10] is T1, CD40 ligand. Briefly: Alphascreen, unmodified peptide, inhibition of CD40L/CD40-Fc.
Experiment [11] deals with T1, CD40 ligand. Briefly: phage-displayed peptide on bound CD40L, soluble CD40L as competitor.
Experiment [12] addresses T1, CD40 ligand. Nature of the experiment: Alphascreen proximity assay, inhibition of CD40L-CD40.
In experiment [13] the target is T1, CD40 ligand. Nature of the experiment: from the KD values of Table 2 (Octet Red).
The target of experiment [14] is T1, CD40 ligand. Briefly: Alphascreen proximity assay, peptide dimer titrated against 0.75nM CD40L; blocked interaction: CD40L with CD40; signal falls from about 12500 to about 4000 units.
For experiment [15], the target named is T1, CD40 ligand. Briefly: Alphascreen proximity assay (1hr), peptide titrated against 0.75nM CD40L; blocked interaction: CD40L with CD40; signal falls from about 27500 to about 5000 units.
Experiment [16] deals with T1, CD40 ligand. Nature of the experiment: Alphascreen proximity assay, peptide dimer titrated against 0.75nM CD40L; blocked interaction: CD40L with CD40; signal falls from about 23000 to about 4000 units.
For experiment [17], the target named is T1, CD40 ligand. Nature of the experiment: Alphascreen proximity assay (1hr), peptide titrated against 0.75nM CD40L; blocked interaction: CD40L with CD40; signal falls from about 21000 to about 3000 units.

Chain of CD40L-induced CD86 expression on primary B-cells (P29965 whole entry): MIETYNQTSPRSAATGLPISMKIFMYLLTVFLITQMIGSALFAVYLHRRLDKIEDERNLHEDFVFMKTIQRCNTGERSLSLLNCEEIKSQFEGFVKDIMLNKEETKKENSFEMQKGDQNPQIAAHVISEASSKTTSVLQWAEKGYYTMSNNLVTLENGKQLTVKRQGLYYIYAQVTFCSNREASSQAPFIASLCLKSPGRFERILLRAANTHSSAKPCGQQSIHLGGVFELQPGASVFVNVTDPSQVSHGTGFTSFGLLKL
Chain of CD40L-induced CD86 expression on primary B-cells (P25942 21-277 partner): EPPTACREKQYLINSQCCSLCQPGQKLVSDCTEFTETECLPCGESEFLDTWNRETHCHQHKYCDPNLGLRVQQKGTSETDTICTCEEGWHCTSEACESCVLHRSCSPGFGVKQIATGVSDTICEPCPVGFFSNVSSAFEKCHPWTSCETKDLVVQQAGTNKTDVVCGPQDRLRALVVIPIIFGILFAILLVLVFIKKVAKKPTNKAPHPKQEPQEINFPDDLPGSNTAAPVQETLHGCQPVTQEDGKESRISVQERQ

`CC[C@H](C)[C@H](NC(=O)[C@H](CO)NC(=O)[C@H](Cc1c[nH]c2ccccc12)NC(=O)[C@H](CCC(N)=O)NC(=O)[C@@H](NC(=O)[C@@H]1CCCN1C(=O)[C@H](Cc1ccccc1)NC(=O)[C@H](Cc1ccccc1)NC(=O)[C@H](Cc1c[nH]c2ccccc12)NC(=O)CNC(=O)[C@H](Cc1ccc(O)cc1)NC(=O)[C@H](CCCCN)NC(=O)[C@H](CC(C)C)NC(=O)[C@@H](NC(=O)[C@H](Cc1c[nH]cn1)NC(=O)[C@H](CO)NC(=O)[C@H](CCCNC(=N)N)NC(=O)[C@H](Cc1ccc(O)cc1)NC(=O)[C@@H]1CCCN1C(=O)[C@@H](NC(=O)[C@H](Cc1ccccc1)NC(=O)[C@@H]1CCCN1C(=O)[C@@H](N)CC(C)C)C(C)C)C(C)C)C(C)C)C(=O)N[C@@H](Cc1ccccc1)C(=O)N[C@@H](C)C(=O)N[C@H](C(=O)N[C@@H](CC(C)C)C(=O)N1CCC[C@H]1C(=O)N[C@@H](Cc1ccccc1)C(=O)N[C@@H](CCC(N)=O)C(=O)N[C@@H](Cc1ccc(O)cc1)C(=O)N[C@@H](CC(C)C)C(=O)N[C@@H](Cc1c[nH]cn1)C(=O)N[C@@H](CCCNC(=N)N)C(=O)N[C@@H](CO)C(=O)N[C@@H](CCCNC(=N)N)C(=O)O)C(C)C` [CD40L M1_18s] (H-LPFVPYRSHVLKYGWFFPVQWSIFAVLPFQYLHRSR-OH; N-terminus and C-terminus assumed): the “significant inhibition of TNFα-induced cell death / cytoxicity” value is “lack of inhibition” in the experiment with TNFα-induced cytoxicity (listed as M1—18*S) and “none” with TNFα-induced cytoxicity (listed as M1—18S). In addition, the “inhibition of LPS-induced CD86 expression” value in experiment [1] was “lack of concentration-dependent inhibition; also recorded: no significant inhibition”. The “inhibition of CD40L-induced CD86 expression on primary B-cells” value in [2] is “concentration-dependent inhibition”.

B1: CD40L M1_6s (peptide)
peptide: HPFSIKNVFSIWNFFSVY
notes: Cys-to-Ser derivative
Turning to B1, the “IC50 (read off the curve)” value in the experiment with CD40 ligand [3] and with CD40 ligand [4] was about 300 nM each time. Also, the “EC50, inhibition of CD40L-induced CD86 expression on primary B-cells” value with CD40 ligand [5] was 323 nM.

B2: CD40L M1_30s (peptide)
peptide: DAAGREFFQIAGLFSFRHHWWQA
For the molecule B2, binding with CD40 ligand [6] was put at a Kd of 400 nM.

B3: PEGylated CD40L M7_206 (peptide)
peptide: {PEG}-PFTWRPTIFWIIQLIVYMRHF
modifications: reading uncertain
In turn, B3 returned an EC50 with CD40 ligand [7] of 88 nM.

B4: CD40L M1_18s (peptide)
peptide: LPFVPYRSHVLKYGWFFPVQWSIFAVLPFQYLHRSR
Turning to B4, the “EC50, inhibition of CD40L-induced CD86 expression on primary B-cells” value with CD40 ligand [5] was 743 nM. For the same molecule, in the experiment with CD40 ligand [8], the “EC50, inhibition of CD40L-induced expression of CD86 on primary B-cells (FACS)” value is about 743 nM.

B5: CD40L M1_18 (peptide)
peptide: LPFVPYRSHVLKYGWFFPVQWSIFAVLPFQYLHRCR
notes: Base peptide
In the experiment with CD40 ligand [9], B5 registered a Kd of 2.3 nM. Further, the response with CD40 ligand [10] was half-maximal at 350 nM (EC50). Besides, the IC50 with CD40 ligand [11] was 25 nM. Besides, in the experiment with CD40 ligand [8], the “IC50, inhibition of CD40L-induced expression of CD86 on primary B-cells” value was under 500 nM.

B6: Cys_M1_6S (peptide)
peptide: CHPFSIKNVFSIWNFFSVY
As for B6, the “IC50 (read off the curve)” value in the experiment with CD40 ligand [3] and with CD40 ligand [4] was about 300 nM throughout. Besides, in the experiment with CD40 ligand [5], the “EC50, inhibition of CD40L-induced CD86 expression on primary B-cells” value was 306 nM. In addition, in the experiment with CD40 ligand [12], a half-maximal effect (EC50) was put at 0.265 nM.

B7: CD40L D1_0014 (peptide)
peptide: PFTWRPTIFWIIQLIVYMRHFGGGGSRSELLRENICRYVSLFDHPLQRNTPLDELRFVIFDTETSGFDLVKDRILSIR
notes: Single-chain fusion of two peptide monomers; also called heterodimeric peptide of CD40L M1-206 and a second monomer with tetra-glycine spacer
As for B7, the “fold higher affinity than the base monomeric peptide CD40L M1-206” value with CD40 ligand [13] is 6 fold.

B8: CD40L M1_50s (peptide)
peptide: PRWVRNRFYSLFVPSGVQRGGIHLWFSNWVR
notes: Cys-to-Ser derivative
As for B8, the Kd in the experiment with CD40 ligand [6] stood at 600 nM.

B9: Cys_M1_6S homodimer (peptide)
peptide: CHPFSIKNVFSIWNFFSVY
modifications: also: homodimer: disulfide between the N-terminal cysteines of two chains
notes: also called 6-6 dimer; homodimer of the Phylomer peptide M1-6
As to B9, the “EC50, inhibition of CD40L-induced CD86 expression on primary B-cells” value in the experiment with CD40 ligand [5] turned out to be 48.9 nM. The concentration giving a half-maximal response (EC50) in the experiment with CD40 ligand [14] was determined as 48.9 nM; in the experiment with CD40 ligand [12], 0.0489 nM.

B10: M7_189S (peptide)
peptide: LLLFFFSPPFSIFSFSLTTLS
notes: Cys-to-Ser derivative; also called M1-189Sa
Regarding B10, the EC50 with CD40 ligand [15] stood at 176 nM; with CD40 ligand [12], 0.176 nM. Further, the “EC50, inhibition of CD40L-induced CD86 expression on primary B-cells” value with CD40 ligand [5] came out at 176 nM.

B11: Cys_M1_6S-Cys_M1_9S heterodimer (peptide)
peptide 1: CHPFSIKNVFSIWNFFSVY
peptide 2: CPPRYNLFFLFRFYSSFRRDYLYF
modifications: disulfide I:1-II:1
notes: also called 6-9 dimer
B11: the EC50 with CD40 ligand [16] turned out to be 30 nM; with CD40 ligand [12] it was 0.03 nM. Moreover, the “EC50, inhibition of CD40L-induced CD86 expression on primary B-cells” value with CD40 ligand [5] was found to be 35 nM.

B12: PEGylated CD40L M1_82 (peptide)
peptide: {PEG}-SIQYHWRYSRFKYYFQLIWVYYCHV
modifications: reading uncertain
B12 gave a concentration giving a half-maximal response (EC50) with CD40 ligand [7] of 120 nM.

B13: CD40L M1_9s (peptide)
peptide: PPRYNLFFLFRFYSSFRRDYLYF
notes: Cys-to-Ser derivative; also called M1-9Sa
For the molecule B13, in the experiment with CD40 ligand [5], the “EC50, inhibition of CD40L-induced CD86 expression on primary B-cells” value was 564 nM. Besides, the concentration giving a half-maximal response (EC50) came out at 564 nM in the experiment with CD40 ligand [17] and 0.564 nM in the experiment with CD40 ligand [12].
